Data reported in publication PMC7764039.

B1: A1R, untagged (plasmid ARJ194: pCEP4 A1R) (receptor)
chain: MPPSISAFQAAYIGIEVLIALVSVPGNVLVIWAVKVNQALRDATFCFIVSLAVADVAVGALVIPLAILINIGPQTYFHTCLMVACPVLILTQSSILALLAIAVDRYLRVKIPLRYKMVVTPRRAAVAIAGCWILSFVVGLTPMFGWNNLSAVERAWAANGSMGEPVIKCEFEKVISMEYMVYFNFFVWVLPPLLLMVLIYLEVFYLIRKQLNKKVSASSGDPQKYYGKELKIAKSLALILFLFALSWLPLHILNCITLFCPSCHKPSILTYIAIFLTHGNSAMNPIVYAFRIQKFRVTFLKIWNDHFRCQPAPPIDEDLPEERPDD

Molecular target: Gαi (endogenous in HEK-293 cells) (human (endogenous in HEK-293)) (UniProt P63096)
UniProt P63096, sequence (P63096 whole entry): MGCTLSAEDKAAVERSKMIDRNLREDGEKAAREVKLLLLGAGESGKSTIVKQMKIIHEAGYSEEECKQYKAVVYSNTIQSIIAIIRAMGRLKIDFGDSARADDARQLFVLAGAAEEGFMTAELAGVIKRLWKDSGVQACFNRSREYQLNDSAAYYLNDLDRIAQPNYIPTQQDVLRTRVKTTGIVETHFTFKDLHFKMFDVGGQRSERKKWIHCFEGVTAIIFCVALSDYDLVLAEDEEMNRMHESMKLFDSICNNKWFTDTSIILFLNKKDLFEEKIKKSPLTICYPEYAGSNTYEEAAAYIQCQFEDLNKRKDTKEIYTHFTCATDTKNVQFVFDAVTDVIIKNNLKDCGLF

| Molecule | reduction in cAMP signaling in transiently transfected HEK-293 cells, 1 µM CPA with 10 μM forskolin, normalized to forskolin treated cells [%] |
| --- | --- |
| A1/A2AR chimera, untagged (plasmid ARJ195: pCEP4 A1/A2AR) (from UniProt P30542 1-290; P29274 291-412) (receptor) | 72 |
| A1/A2AΔ316R truncated chimera, untagged (plasmid ARJ196: pCEP4 A1/A2AΔ316R) (from UniProt P30542 1-290; P29274 291-316) (receptor) | 67 |
| B1 | 62 |
